According to US9745384B2, “Peptides useful for modulating histone demethylase function” (The Brigham and Women's Hospital, Inc., priority 2012, dated 2017):
Ends that are not written are not given here.

T1: His-LSD2 (Homo sapiens, UniProt Q8NB78)
T1 construct: typically 0.5 μg full-length His-LSD2; made in house; host or cells: Sf9 insect cells
T1 sequence (Q8NB78 1-822): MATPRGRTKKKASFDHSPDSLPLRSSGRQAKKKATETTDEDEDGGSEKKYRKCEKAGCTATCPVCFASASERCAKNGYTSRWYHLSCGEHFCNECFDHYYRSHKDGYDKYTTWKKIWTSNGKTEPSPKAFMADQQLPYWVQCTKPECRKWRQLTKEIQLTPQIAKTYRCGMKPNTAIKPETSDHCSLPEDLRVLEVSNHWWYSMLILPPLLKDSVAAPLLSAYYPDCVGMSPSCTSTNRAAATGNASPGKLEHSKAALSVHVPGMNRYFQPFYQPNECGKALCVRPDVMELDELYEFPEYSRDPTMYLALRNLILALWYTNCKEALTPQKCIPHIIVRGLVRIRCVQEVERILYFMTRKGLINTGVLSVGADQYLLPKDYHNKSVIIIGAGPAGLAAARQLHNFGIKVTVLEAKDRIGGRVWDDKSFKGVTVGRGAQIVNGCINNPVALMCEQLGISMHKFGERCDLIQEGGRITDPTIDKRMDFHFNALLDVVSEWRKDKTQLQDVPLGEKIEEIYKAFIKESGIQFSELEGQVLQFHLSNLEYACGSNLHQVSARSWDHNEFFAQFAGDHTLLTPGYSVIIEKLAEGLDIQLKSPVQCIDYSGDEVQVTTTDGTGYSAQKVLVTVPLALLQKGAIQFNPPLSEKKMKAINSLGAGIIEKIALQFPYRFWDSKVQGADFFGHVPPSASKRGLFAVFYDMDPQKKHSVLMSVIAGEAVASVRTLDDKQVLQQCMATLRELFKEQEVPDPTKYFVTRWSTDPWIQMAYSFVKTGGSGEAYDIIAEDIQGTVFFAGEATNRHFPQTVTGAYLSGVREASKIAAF

T2: LSD2 (residues 51-822) (Homo sapiens, UniProt Q8NB78)
T2 construct: Human LSD2 (residues 51-822) was subcloned into a pFastBacl derivative; His6 (cleaved yes); made in house; host or cells: Sf9 insect cells (baculovirus)
T2 sequence (Q8NB78 51-822): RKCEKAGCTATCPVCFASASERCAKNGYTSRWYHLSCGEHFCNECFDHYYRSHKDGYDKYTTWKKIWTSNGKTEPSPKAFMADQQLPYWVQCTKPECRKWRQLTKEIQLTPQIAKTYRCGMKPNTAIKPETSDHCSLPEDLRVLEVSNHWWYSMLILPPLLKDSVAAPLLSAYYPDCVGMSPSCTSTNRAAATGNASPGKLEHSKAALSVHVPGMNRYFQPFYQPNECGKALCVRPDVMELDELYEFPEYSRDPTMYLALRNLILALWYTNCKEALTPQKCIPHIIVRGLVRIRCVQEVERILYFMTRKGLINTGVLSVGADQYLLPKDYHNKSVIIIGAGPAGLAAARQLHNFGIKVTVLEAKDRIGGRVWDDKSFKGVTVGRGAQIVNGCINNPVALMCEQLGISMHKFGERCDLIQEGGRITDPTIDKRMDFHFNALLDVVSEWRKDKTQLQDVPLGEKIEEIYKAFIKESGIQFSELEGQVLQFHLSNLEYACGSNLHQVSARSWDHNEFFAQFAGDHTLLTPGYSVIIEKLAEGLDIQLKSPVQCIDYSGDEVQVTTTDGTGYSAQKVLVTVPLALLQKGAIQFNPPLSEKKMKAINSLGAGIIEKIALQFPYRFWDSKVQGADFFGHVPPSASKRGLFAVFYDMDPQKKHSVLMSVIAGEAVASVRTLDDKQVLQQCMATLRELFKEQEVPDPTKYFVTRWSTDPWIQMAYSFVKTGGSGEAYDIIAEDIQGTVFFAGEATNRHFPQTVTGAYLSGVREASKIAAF

B1: NP.d9: NP.d3 with deletion of amino acids 214-222 (protein)
chain: SERGSKSPLKRAQEQSPRKRGRPPKDEKDLTIPESSTVKGMMAGPMAAFKWQPTASEPVKDASQTEKPAVCYQAITKKLKICEEETGSTSIQ
modifications: left off: a dimerising Fc or GST; small tags and cut ends
B2: NP.d3: GST-tagged NPAC truncation, residues 152-252 (protein)
chain: SERGSKSPLKRAQEQSPRKRGRPPKDEKDLTIPESSTVKGMMAGPMAAFKWQPTASEPVKDADPHFHHFLLSQTEKPAVCYQAITKKLKICEEETGSTSIQ
modifications: left off: a dimerising Fc or GST
B3: NP.d1: GST-tagged NPAC truncation, PWWP domain, residues 1-150 (protein)
chain: MAAVSLRLGDLVWGKLGRYPPWPGKIVNPPKDLKKPRGKKCFFVKFFGTEDHAWIKVEQLKPYHAHKEEMIKINKGKRFQQAVDAVEEFLRRAKGKDQTSSHNSSDDKNRRNSSEERSRPNSGDEKRKLSLSEGKVKKNMGEGKKRVSSG
modifications: left off: a dimerising Fc or GST
B4: NP.d5: GST-tagged NPAC truncation, dehydrogenase domain, residues 262-553 (protein)
chain: SITPTDKKIGFLGLGLMGSGIVSNLLKMGHTVTVWNRTAEKCDLFIQEGARLGRTPAEVVSTCDITFACVSDPKAAKDLVLGPSGVLQGIRPGKCYVDMSTVDADTVTELAQVIVSRGGRFLEAPVSGNQQLSNDGMLVILAAGDRGLYEDCSSCFQAMGKTSFFLGEVGNAAKMMLIVNMVQGSFMATIAEGLTLAHVTGQSQQTLLDILNQGQLASIFLDQKCQNILQGNFKPDFYLKYIQKDLRLAIALGDAVNHPTPMAAAANEVYKRAKALDQSDNDMSAVYRAYIH
modifications: left off: a dimerising Fc or GST
B5: NP.d6: NPAC with deletion of the linker region (residues 152-252) (protein)
chain: MAAVSLRLGDLVWGKLGRYPPWPGKIVNPPKDLKKPRGKKCFFVKFFGTEDHAWIKVEQLKPYHAHKEEMIKINKGKRFQQAVDAVEEFLRRAKGKDQTSSHNSSDDKNRRNSSEERSRPNSGDEKRKLSLSEGKVKKNMGEGKKRVSSGSAADSTAVNGSITPTDKKIGFLGLGLMGSGIVSNLLKMGHTVTVWNRTAEKCDLFIQEGARLGRTPAEVVSTCDITFACVSDPKAAKDLVLGPSGVLQGIRPGKCYVDMSTVDADTVTELAQVIVSRGGRFLEAPVSGNQQLSNDGMLVILAAGDRGLYEDCSSCFQAMGKTSFFLGEVGNAAKMMLIVNMVQGSFMATIAEGLTLAHVTGQSQQTLLDILNQGQLASIFLDQKCQNILQGNFKPDFYLKYIQKDLRLAIALGDAVNHPTPMAAAANEVYKRAKALDQSDNDMSAVYRAYIH
modifications: left off: a dimerising Fc or GST; small tags and cut ends
B6: NP.d2: GST-tagged NPAC truncation, residues 1-252 (protein)
chain: MAAVSLRLGDLVWGKLGRYPPWPGKIVNPPKDLKKPRGKKCFFVKFFGTEDHAWIKVEQLKPYHAHKEEMIKINKGKRFQQAVDAVEEFLRRAKGKDQTSSHNSSDDKNRRNSSEERSRPNSGDEKRKLSLSEGKVKKNMGEGKKRVSSGSSERGSKSPLKRAQEQSPRKRGRPPKDEKDLTIPESSTVKGMMAGPMAAFKWQPTASEPVKDADPHFHHFLLSQTEKPAVCYQAITKKLKICEEETGSTSIQ
modifications: left off: a dimerising Fc or GST
B7: NP.d4: GST-tagged NPAC truncation, residues 152-553 (protein)
chain: SERGSKSPLKRAQEQSPRKRGRPPKDEKDLTIPESSTVKGMMAGPMAAFKWQPTASEPVKDADPHFHHFLLSQTEKPAVCYQAITKKLKICEEETGSTSIQAADSTAVNGSITPTDKKIGFLGLGLMGSGIVSNLLKMGHTVTVWNRTAEKCDLFIQEGARLGRTPAEVVSTCDITFACVSDPKAAKDLVLGPSGVLQGIRPGKCYVDMSTVDADTVTELAQVIVSRGGRFLEAPVSGNQQLSNDGMLVILAAGDRGLYEDCSSCFQAMGKTSFFLGEVGNAAKMMLIVNMVQGSFMATIAEGLTLAHVTGQSQQTLLDILNQGQLASIFLDQKCQNILQGNFKPDFYLKYIQKDLRLAIALGDAVNHPTPMAAAANEVYKRAKALDQSDNDMSAVYRAYIH
modifications: left off: a dimerising Fc or GST

Columns and labels:
[1] = biological target: T1, His-LSD2; assay: GST-pulldown of His-LSD2 by GST-NPAC proteins; format: binding; settings: coomassie blue staining
Experimental: […] GST or GST-NPAC fusion proteins were bound to glutathione agarose, and were incubated with 2 μg full-length His-LSD2 overnight in 50 mM NaPO4 pH 7.4, 150 mM NaCl, 0.5% NP-40, 5% glycerol, 10 μM ZnSO4, 1 mM MgCl2, 1 mM DTT, 0.1 mM PMSF at 4° C. After washed 4 times with same buffer at 4° C., glutathione agarose beads were boiled in 1×SDS sample loading buffer. Elute was resolved on a 15% SDS-PAGE gel and stained by coomassie blue.

[2] = biological target: T1, His-LSD2; assay: Nucleosome demethylation assay (NPAC cofactor activity for LSD2, immunoblot); format: biochemical; settings: threshold dosage of His-LSD2; nucleosomes purified from HeLa
Experimental: For nucleosome demethylation assays, typically 0.5 μg full-length His-LSD2, 1 μg NPAC protein or peptides, and 2 μg nucleosomes purified from HeLa were used, and demethylation efficiency was analyzed by SDS-PAGE electrophoresis and immunoblot using methylation specific anti-histone H3 antibodies as previously described (Shi et al. 2004).

[3] = biological target: T2, LSD2 (residues 51-822); assay: ITC binding of wild-type and mutant NPAC peptides (residues 214-225) with LSD2; settings: 15 °C; 3 mM NPAC peptide injected into 0.2 mM LSD2
Experimental: All proteins and peptides were prepared in 10 mM HEPES, pH 8.0, and 0.1 M NaCl. The data were fitted by software Origin 7.0.

| Molecule | LSD2 binding (GST-pulldown) [1] | Cofactor activity: stimulation of LSD2 demethylation of nucleosomal H3K4me2 [2] | Δ H [3] [kcal/mol] | Δ S [3] [cal/mol/deg] |
| --- | --- | --- | --- | --- |
| NP.d7: NPAC residues 152-186, containing the AT hook motif (SERGSKSPLKRAQEQSPRKRGRPPKDEKDLTIPES; also: fused to dimerising Fc or GST) | but not NP.d7 (residues 152-186, containing the AT hook motif, lane 4), is sufficient for LSD2 interaction | but not NP.d7 or NP.d9, significantly enhances LSD2 histone demethylase activity | – | – |
| CC(C)C[C@H](NC(=O)[C@H](Cc1ccccc1)NC(=O)[C@H](Cc1c[nH]cn1)NC(=O)[C@H](Cc1c[nH]cn1)NC(=O)[C@H](C)NC(=O)[C@H](C)NC(=O)[C@@H]1CCCN1C(=O)[C@H](C)N)C(=O)N[C@@H](CC(C)C)C(=O)N[C@@H](CO)C(=O)N[C@@H](CCC(N)=O)C(=O)N[C@H](C(=O)O)[C@@H](C)O [NPAC.214-225.M8] | – | – | -8.288 ± 0.101 | −1.3 |
| B1 | completely abolishes LSD2 binding | but not NP.d7 or NP.d9, significantly enhances LSD2 histone demethylase activity | – | – |
| B2 | capable of directly interacting with LSD2 | significantly enhance LSD2 demethylase activity | – | – |
| B3 | Neither the PWWP domain (SEQ ID NO: 63) (NP.d1) nor the dehydrogenase domain (NP.d5) interacts with LSD2 | Neither the PWWP domain (SEQ ID NO: 63) (NP.d1, residues 1-150) nor the dehydrogenase domain (NP.d5, residues 262-553) stimulated LSD2 | – | – |
| B4 | Neither the PWWP domain (SEQ ID NO: 63) (NP.d1) nor the dehydrogenase domain (NP.d5) interacts with LSD2 | Neither the PWWP domain (SEQ ID NO: 63) (NP.d1, residues 1-150) nor the dehydrogenase domain (NP.d5, residues 262-553) stimulated LSD2 | – | – |
| B5 | abolishes NPAC-LSD2 interaction | abolishes cofactor activity | – | – |
| B6 | capable of directly interacting with LSD2 | significantly enhance LSD2 demethylase activity | – | – |
| B7 | capable of directly interacting with LSD2 | significantly enhance LSD2 demethylase activity | – | – |
